Results as given in patent publication US5693758A, “Immunoglobulin E competitor” (501 Research Corporation Limited, priority 1987, dated 1997).

What was measured:
[1] = test system: Fc receptors of mast cells; details: cited from earlier work; for blocking activity: reported by Bennich
[2] = test system: FcER2 positive RPMI 8866 B cells; experiment: Indirect immunofluorescence binding of rE peptides to RPMI 8866 B cells (FACScan); set-up: species or system human; details: for % positive cells: RPMI 8866 B cells, indirect immunofluorescence, 0.1-200 μg/ml ligand, 40 min 4° C., mean ±S.D. of 9 experiments; for binding to FcER2 positive RPMI 8866 B cells (in words): further indirect immunofluorescence studies
Protocol: RPMl 8866 cells were incubated with different concentrations of rE peptides and indirect immuno-fluorescence was performed.
For indirect immunofluorescence the results of which are summarised in Table VII, 0.5×10^6 RPMI 8866 cells (>99% FcER2 positive) in staining buffer (RPMI 1640 - 2.5% fetal bovine serum, containing 0.01% azide) were incubated with various concentrations (0.1-200 μg/ml) of purified rE fragments or native IgE(PS) for 40 minutes at 4° C. After washing, the cells were incubated for 30 minutes at 4° C. with the appropriate fluorescein isothiocyanate (FITC)-conjugated anti-Fc mAB or with an affinity-purified goat anti-human IgE antibody (10 μg/ml). After extensive washing, the percentage of cells binding IgE or the rE fragments was evaluated by a FACScan (Becton Dickinson, Mountain View, Calif.).

Asp-Ser-Asn-Pro-Arg (DSNPR; printed: Asp-Ser-Asn-Pro-Arg)
blocking activity [1]: neither of the peptides Asp-Ser-Asp-Pro-Arg nor Asp-Ser-Asn-Pro-Arg has any blocking activity

Asp-Ser-Asp-Pro-Arg (DSDPR; printed: Asp-Ser-Asp-Pro-Arg) [HEPP, Human Immunoglobulin E Polypeptide, pentapeptide from IgE heavy chain 330 to 334]
blocking activity [1]: neither of the peptides Asp-Ser-Asp-Pro-Arg nor Asp-Ser-Asn-Pro-Arg has any blocking activity
specific activity ([1]; reported): low

B1: rE2-3: recombinant IgE peptide Asp 218-Pro 439 (CH2 and CH3) (protein, UniProt P01854 218-439, looked up, fragment)
chain: SAYLSRPSPFDLFIRKSPTITCLVVDLAPSKGTVNLTWSRASGKPVNHSTRKEEKQRNGTLTVTSTLPVGTRDWIEGETYQCRVTHPHLPRALMRSTTKTSGPRAAPEVYAFATPEWPGSRDKRTLACLIQNFMPEDISVQWLHNEVQLPDARHSTTQPRKTKGSGFFVFSRLEVTRAEWEQKDEFICRAVHEAASPSQTVQRAVSVNPGLAGGSAQSQRAP
% positive cells [2]: 3 ± 1%
binding to FcER2 positive RPMI 8866 B cells (in words) [2]: no detectable binding

B2: rE2: recombinant IgE peptide Asp 218-Val 336 (CH2) (protein, UniProt P01854 218-336, looked up, fragment)
chain: SAYLSRPSPFDLFIRKSPTITCLVVDLAPSKGTVNLTWSRASGKPVNHSTRKEEKQRNGTLTVTSTLPVGTRDWIEGETYQCRVTHPHLPRALMRSTTKTSGPRAAPEVYAFATPEWPG
% positive cells [2]: 2 ± 1%
binding to FcER2 positive RPMI 8866 B cells (in words) [2]: no detectable binding

B3: rE2'-3': recombinant IgE peptide Gln 301-Arg 376 (protein, UniProt P01854 301-376, looked up, fragment)
chain: VTHPHLPRALMRSTTKTSGPRAAPEVYAFATPEWPGSRDKRTLACLIQNFMPEDISVQWLHNEVQLPDARHSTTQP
% positive cells [2]: 2 ± 1%
binding to FcER2 positive RPMI 8866 B cells (in words) [2]: no detectable binding
